Among the data in publication doi:10.1101/2025.08.13.670075 are fold change of USP15 content on proteasomes, MG132-treated over untreated cells values, retold here.

This test deals with proteasome with HTBH-tagged 20S subunit PSMB2 (human (expressed in HEK293) | human (endogenous in HEK293T)) (UniProt P49721). Briefly: affinity purification with mass spectrometry.
UniProt P49721, sequence (P49721 whole entry, looked up, tested part not stated): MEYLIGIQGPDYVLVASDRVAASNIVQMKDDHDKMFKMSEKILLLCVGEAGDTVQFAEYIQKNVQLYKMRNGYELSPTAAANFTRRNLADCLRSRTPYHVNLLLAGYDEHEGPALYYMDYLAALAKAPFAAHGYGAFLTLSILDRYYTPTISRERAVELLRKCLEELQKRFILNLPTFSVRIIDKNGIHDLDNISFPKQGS

B1: USP15 (endogenous, HEK293T or HeLa cells) (enzyme)
chain: MAEGGAADLDTQRSDIATLLKTSLRKGDTWYLVDSRWFKQWKKYVGFDSWDKYQMGDQNVYPGPIDNSGLLKDGDAQSLKEHLIDELDYILLPTEGWNKLVSWYTLMEGQEPIARKVVEQGMFVKHCKVEVYLTELKLCENGNMNNVVTRRFSKADTIDTIEKEIRKIFSIPDEKETRLWNKYMSNTFEPLNKPDSTIQDAGLYQGQVLVIEQKNEDGTWPRGPSTPKSPGASNFSTLPKISPSSLSNNYNNMNNRNVKNSNYCLPSYTAYKNYDYSEPGRNNEQPGLCGLSNLGNTCFMNSAIQCLSNTPPLTEYFLNDKYQEELNFDNPLGMRGEIAKSYAELIKQMWSGKFSYVTPRAFKTQVGRFAPQFSGYQQQDCQELLAFLLDGLHEDLNRIRKKPYIQLKDADGRPDKVVAEEAWENHLKRNDSIIVDIFHGLFKSTLVCPECAKISVTFDPFCYLTLPLPMKKERTLEVYLVRMDPLTKPMQYKVVVPKIGNILDLCTALSALSGIPADKMIVTDIYNHRFHRIFAMDENLSSIMERDDIYVFEININRTEDTEHVIIPVCLREKFRHSSYTHHTGSSLFGQPFLMAVPRNNTEDKLYNLLLLRMCRYVKISTETEETEGSLHCCKDQNINGNGPNGIHEEGSPSEMETDEPDDESSQDQELPSENENSQSEDSVGGDNDSENGLCTEDTCKGQLTGHKKRLFTFQFNNLGNTDINYIKDDTRHIRFDDRQLRLDERSFLALDWDPDLKKRYFDENAAEDFEKHESVEYKPPKKPFVKLKDCIELFTTKEKLGAEDPWYCPNCKEHQQATKKLDLWSLPPVLVVHLKRFSYSRYMRDKLDTLVDFPINDLDMSEFLINPNAGPCRYNLIAVSNHYGGMGGGHYTAFAKNKDDGKWYYFDDSSVSTASEDQIVSKAAYVLFYQRQDTFSGTGFFPLDRETKGASAATGIPLESDEDSNDNDNDIENENCMHTN
B1: the fold change of USP15 content on proteasomes, MG132-treated over untreated cells is above 4 fold.
